Source: PMC5227068

What was measured:
[1] = biological target: recombinant human endothelial protein C receptor (human) (UniProt Q9UNN8); test: BLI; Octet Qke; EPCR on the biosensor, CIDR domain in solution; protocol as reported previously (ref. 40); double-reference subtracted data fitted to a 1:1 binding model
[2] = biological target: recombinant human CD36 (human) (UniProt P16671); test: BLI; Octet Qke; hisCD36 immobilised on Ni-NTA biosensors, CIDR domains in solution; kinetics buffer (PBS, 0.02% Tween-20, 100 μg/ml bovine serum albumin, 0.005% sodium azide); association 600 or 900 s, dissociation 300 to 600 s; 1:1 fit
recombinant human CD36 (human), sequence (P16671 whole entry, the tested form may be a part): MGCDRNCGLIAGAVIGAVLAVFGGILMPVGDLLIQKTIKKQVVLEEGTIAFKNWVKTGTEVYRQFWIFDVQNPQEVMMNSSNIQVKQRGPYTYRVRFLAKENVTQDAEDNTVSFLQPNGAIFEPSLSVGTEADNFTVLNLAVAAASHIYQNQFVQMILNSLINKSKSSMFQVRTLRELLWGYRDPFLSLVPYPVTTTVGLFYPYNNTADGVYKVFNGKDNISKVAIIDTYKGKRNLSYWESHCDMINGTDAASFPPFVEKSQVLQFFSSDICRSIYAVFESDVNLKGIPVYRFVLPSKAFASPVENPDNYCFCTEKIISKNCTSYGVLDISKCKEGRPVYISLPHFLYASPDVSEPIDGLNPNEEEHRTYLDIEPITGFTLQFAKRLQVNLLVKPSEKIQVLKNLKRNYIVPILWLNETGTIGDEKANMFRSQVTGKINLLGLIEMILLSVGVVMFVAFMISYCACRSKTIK

[3] = biological target: recombinant human CD36 (human) (UniProt P16671); test: BLI; Octet Qke; hisCD36 immobilised on Ni-NTA biosensors, CIDR domain in kinetics buffer (PBS, 0.02% Tween-20, 100 ug/ml BSA, 0.005% sodium azide); association 600 or 900 s, dissociation 300 to 600 s; double-reference subtracted data fitted to a 1:1 binding model
[4] = biological target: human EPCR on CHO745-EPCR cells (human) (UniProt Q9UNN8); test: flow cytometry on cells; competition: CHO745-EPCR cells coincubated for 30 min with 50 μg/ml (660 nM) or 250 μg/ml (3.3 µM) CIDR domains and 25 μg/ml (446 nM) APC; APC detected by anti-human protein C antibody
human EPCR on CHO745-EPCR cells (human), sequence (Q9UNN8 18-238): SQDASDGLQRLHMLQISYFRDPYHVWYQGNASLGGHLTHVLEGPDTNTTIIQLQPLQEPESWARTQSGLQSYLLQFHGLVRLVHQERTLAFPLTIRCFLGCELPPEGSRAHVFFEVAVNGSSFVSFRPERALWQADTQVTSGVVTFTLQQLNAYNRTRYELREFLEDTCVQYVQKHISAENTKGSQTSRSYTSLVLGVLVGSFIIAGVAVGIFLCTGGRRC

recombinant human endothelial protein C receptor (human), sequence (Q9UNN8 18-238): as above

P. reichenowi var71 CIDRα1.4 (domain or fragment)
koff [1]: 0.000268 s⁻¹ | kon [1]: 11800 M⁻¹ s⁻¹

P. falciparum var14 CIDRα5 (domain or fragment)
Kd [2]: 3.2 nM | koff [3]: 2.99e-05 s⁻¹ | kon [3]: 9280 M⁻¹ s⁻¹

P. falciparum var07 CIDRα1.4 (domain or fragment)
percent reduction of APC binding at 50 μg/ml CIDR [4]: 85% | percent reduction of APC binding at 250 μg/ml CIDR [4]: 98%
